For test [1], the target named is TMEM233 (human) (UniProt B4DJY2).
The target is the same in test [2]. The experiment in a line: fluorescent ligand binding to cells (plate reader); ExTxA-488 (1–300 nM) with mock- or TMEM233-transfected HEK293 and HEK293-NaV1.7 cells in suspension, 250 mM NaCl, 25 mM HEPES, pH 7, 30 min at 4 °C, washed three times; fluorescence intensity read in 384-well plate; EC50 told for NaV1.7/TMEM233 co-expressing cells.

The source of these data is paper PMC10147923, “Pain-causing stinging nettle toxins target TMEM233 to modulate NaV1.7 function” (Nature Communications, 2023).

One may read the EC50 as the midpoint of the concentration-response curve.

TMEM233 (human), sequence (B4DJY2 whole entry): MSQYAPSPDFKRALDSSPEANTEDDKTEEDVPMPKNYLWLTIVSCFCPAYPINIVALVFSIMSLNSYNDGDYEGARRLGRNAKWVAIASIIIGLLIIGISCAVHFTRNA
Alexa488-tagged excelsatoxin A (peptide), sequence (P0DQP3 38-73 limits assumed): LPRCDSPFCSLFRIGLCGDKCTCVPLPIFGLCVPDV

For the substance “Alexa488-tagged excelsatoxin A (peptide)”, in the test with TMEM233 (human) [1], the EC50 of functional potency on NaV1.7 inactivation in NaV1.7/TMEM233 co-expressing cells (electrophysiology) worked out at 80.9 nM. In the test with TMEM233 (human) [2], this substance had an EC50 of 126 nM.
